The labels stand for the following.
B2: human NKG2D (receptor)
chain: IPLTESYCGPCPKNWICYKNNCYQFFDESKNWYESQASCMSQNASLLKVYSKEDQDLLKLVKSYHWMGLVHIPTNGSWQWEDGSILSPNLLTIIEMQKGDCALYASSFKGYIENCSTPNTYICMQRTV

The target in the assay “human NKG2D” is B2. Nature of the assay: printed as 'binding coefficients'; method not stated.
Assay [1] concerns the target OMCP (WT OMCPBR, cowpox virus Brighton Red) (cowpox virus (Brighton Red strain)). The assay is described as above.

B1: KYK-1 antibody (antibody, V domains shown)
VH: EVQLVESGGGVVQPGGSLRLSCAASGFTFSSYGMHWVRQAPGKGLEWVAFIRYDGSNKYYADSVKGRFTISRDNSKNTLYLQMNSLRAEDTAVYYCAKDRFGYYLDYWGQGTLVTVSS
VL: QPVLTQPSSVSVAPGETARIPCGGDDIETKSVHWYQQKPGQAPVLVIYDDDDRPSGIPERFFGSNSGNTATLSISRVEAGDEADYYCQVWDDNNDEWVFGGGTQLTVL
As usually defined, the Kd is the free concentration of one partner at which half of the binding sites on the other are occupied at equilibrium, for simple one-to-one binding. Molecule B1 registered a Kd with human NKG2D of 27 nM.
Take B2: in assay [1], the affinity, expressed as Kd, was 0.1 nM.

B3: KYK-2 antibody (antibody, V domains shown)
VH: QVQLVESGGGLVKPGGSLRLSCAASGFTFSSYGMHWVRQAPGKGLEWVAFIRYDGSNKYYADSVKGRFTISRDNSKNTLYLQMNSLRAEDTAVYYCAKDRGLGDGTYFDYWGQGTTVTVSS
VL: QSALTQPASVSGSPGQSITISCSGSSSNIGNNAVNWYQQLPGKAPKLLIYYDDLLPSGVSDRFSGSKSGTSAFLAISGLQSEDEADYYCAAWDDSLNGPVFGGGTKLTVL
For the molecule B3, the affinity with human NKG2D, expressed as Kd, was 6 nM.

Source of the values: patent US20190119345A1 (published 2019).
